How the values were obtained:
Assay in all cases: BLI
[1] = target: TRIM21–MC1 fusion protein (human) (UniProt P19474)
[2] = target: TRIM21–ME2 fusion protein (human) (UniProt P19474)
[3] = target: TRIM21–MH4 fusion protein (human) (UniProt P19474)

In the case of “recombinant MALT1 (BPS Bioscience), analyte in BLI (from UniProt Q9UDY8 1-824) (natural protein)”, the Kd [1] is reported as 475 nM, the Kd [2] is reported as 753 nM and the Kd [3] is reported as 148 nM.
